Experiments:
Assay in all cases: AUC; sedimentation velocity, 0.25 mg/mL (14.7 µM) protein with 7-fold molar excess of TbCl3, 20 °C, 50,000 rpm, c(s) analysis
[1] = molecular target: gC1q domain of human otolin-1 (hOtolC1q), wild type (human)
[2] = molecular target: gC1q domain of human otolin-1, natural variant Q426R (human)
[3] = molecular target: gC1q domain of human otolin-1, natural variant R339S (human)

Work on “gC1q domain of human otolin-1 (hOtolC1q), wild type (domain or fragment)” yielded a stoichiometry N [1] of 3.

“gC1q domain of human otolin-1, natural variant Q426R (domain or fragment)” showed a stoichiometry N [2] of 3.

Substance “gC1q domain of human otolin-1, natural variant R339S (domain or fragment)” has a stoichiometry N [3] of 3.

Reference: paper PMC8396674
